The target of test [1] is bovine serum albumin (BSA, Sigma) (bovine) (UniProt P02769). The test is described as follows: ELISA, serum albumin coated, FNCBD-EGF (concentration not given), detection with anti-FNCBD monoclonal antibody.
For test [2] the target is unchanged. The test is described as follows: ELISA, serum albumin coated, 0.1 µg/ml FNCBD-FGF, detection with anti-FNCBD monoclonal antibody.

The values below come from patent US20020102709A1.

UniProt P02769, sequence (P02769 25-607 limits assumed): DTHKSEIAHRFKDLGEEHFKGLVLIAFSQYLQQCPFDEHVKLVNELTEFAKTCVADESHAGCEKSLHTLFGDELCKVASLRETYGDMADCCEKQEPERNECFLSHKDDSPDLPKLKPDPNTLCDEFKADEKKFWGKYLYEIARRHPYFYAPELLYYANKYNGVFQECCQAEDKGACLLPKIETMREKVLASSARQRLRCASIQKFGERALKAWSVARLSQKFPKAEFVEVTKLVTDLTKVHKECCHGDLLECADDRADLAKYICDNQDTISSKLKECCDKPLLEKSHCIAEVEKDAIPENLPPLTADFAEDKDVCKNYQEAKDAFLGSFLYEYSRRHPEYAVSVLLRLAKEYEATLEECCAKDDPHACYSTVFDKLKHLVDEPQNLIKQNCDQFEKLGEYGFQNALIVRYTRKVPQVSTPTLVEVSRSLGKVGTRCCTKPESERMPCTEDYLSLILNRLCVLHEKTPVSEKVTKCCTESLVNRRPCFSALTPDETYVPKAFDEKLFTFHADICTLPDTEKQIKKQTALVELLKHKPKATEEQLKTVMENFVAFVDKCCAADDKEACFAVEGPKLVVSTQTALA

In test [1], “human FNCBD/human EGF hybrid polypeptide (FNCBD-EGF)” showed an absorption at 492 nm (absorption (492 nm)) of 0.11. The substance “human FNCBD/human bFGF hybrid polypeptide (FNCBD-FGF)” came in with an absorption at 492 nm (absorption (492 nm)) in test [2] of 0.27.
